Anti-HMW antibody titers Log2 (Titers/100) (Log2 (Titers/100)) data for 1 substance are collected here from patent publication EP1117807B1.

The assay deals with HMW protein antigen of the anti-HMW EIA. The assay is described as follows: antigen-specific EIA, control chinchilla serum IgG titer on coated antigen, second experiment.

“serum of control chinchillas immunized with alum alone (antibody)”: the Anti-HMW antibody titers Log2 (Titers/100) (Log2 (Titers/100)) was below 0.05.
